In experiment [1] the target is T1, recombinant hCD8αβ protein (R&D systems) (human, UniProt P01732 22-182; P10966 22-170).
T1 construct: Bought protein; they are tied to this reagent by name only; also called human CD8 protein; human CD8β protein
Briefly: equilibrium binding ELISA, coated hCD8αβ protein. The protocol: (§1) Wells of a 96 well MicroWell MaxiSorp flat bottom plate (Thermo Fisher Scientific) were coated with 0.2 μg of recombinant hCD8αβ protein, 0.2 μg of cynomolgus CD8β-Fc protein (Sino Biologicals) or PBS overnight at 4° C. The next day, wells were washed 3 times with PBS-T (PBS+0.05% Tween20 (Merck-Millipore, Burlington, MA, USA). Next, wells were blocked with blocking buffer (2% Skimmed milk (Regilait) in PBS) for 1 h at room temperature (RT). Different concentrations of single domain antibodies, diluted in blocking buffer, were added to the wells and incubated for 1 h at RT. Single domain antibody binding was detected using a mouse-anti-HA antibody (1:2000, clone 16B12, Biolegend) and alkaline-phosphatase conjugated goat-anti-mouse antibody (1:200, clone A90-116AP, Bethyl Laboratories, Montgomery, TX, USA). Wells were washed 5 times with PBS-T between all incubation steps. Binding was determined using p-nitrophenyl phosphate (2 mg/ml resuspended in AP blot buffer (12.12 g/L Trizma base, 10.17 g MgCl2·6H20/L, 5.84 g/L NaCl); Thermo Fisher Scientific). Absorbance at 405 nm was measured via a VersaMax ELISA Microplate Reader, using the SoftMax® Pro software (Molecular Devices, San Jose, CA, USA).

For experiment [2], the target named is T2, human CD8α on CD3- CD56+ NK cells (express hCD8α but not hCD8β) (human, UniProt P01732 22-235).
T2 construct: whole, on cells; also called cell-exposed CD8a
Briefly: flow cytometry on primary NK cells, anti-HA detection.

Experiment [3] has as its target T3, human CD8 (CD8αβ) on cells: SUP-T1 T cell lymphoma cells and primary human CD8+ T cells (human, UniProt P01732 22-235; P10966 22-210).
T3 construct: whole, on cells; SUP-T1 endogenously expresses human CD8; primary T cells came from healthy donors; The sdAbs are directed to the CD8β chain; also called SUP-T1 cells; primary CD8+ T cells
Briefly: flow cytometry on SUP-T1 cells, anti-HA detection. The protocol:
Serial dilutions of anti-hCD8β single domain antibodies were incubated with 500.000 SUP-T1 cells in FACS buffer (HBSS (Gibco, Thermo Fisher Scientific) supplemented with 1% FBS and 2 mM EDTA (Duchefa Biochemie, Haarlem, The Netherlands)) for 1 h at 4° C. Cells were washed once with FACS buffer. Next, single domain antibody binding was detected by incubation of the cells with an Alexa Fluor®-488 tagged anti-HA antibody (1:1000 in FACS buffer, clone 16B12, Biolegend, San Diego, CA, USA) for 30 min at 4° C. Again, cells were washed once with FACS buffer. Single domain antibody binding was determined using the FACS CANTO II analyser (BD Biosciences, Franklin Lakes, NJ, USA). The mean fluorescence intensity of single domain antibody binding was determined using FlowJo version 10.

Experiment [4] has as its target T4, cynomolgus CD8β-Fc protein (Sino Biologicals) (cynomolgus).
T4 construct: Bought protein; also called cynomolgus CD8β protein
The experiment can be described thus: equilibrium binding ELISA, coated cynomolgus CD8β-Fc. The protocol:
as §1

The target of experiment [5] is T1, recombinant hCD8αβ protein (R&D systems). Briefly: SPR, Biacore T200, sdAb injected 250 to 1 nM, 25 °C, 1:1 fit. The protocol:
The affinity of purified anti-hCD8β single domain antibodies to recombinant hCD8αβ protein (R&D systems, Minneapolis, MN, USA) was determined using the BIACORE-T200 device (Cytiva, Freiburg, Germany). Surface plasmon resonance measurements were performed at 25° C. with HEPES buffered saline (HBS, 20 mM of HEPES pH 7.4, 150 mM of NaCl, 3.4 mM of EDTA 0.05% Tween-20) running buffer. The single domain antibodies were injected consecutively in 2-fold serial dilutions, from 250 to 1 nM. The association step was 100 s, the dissociation step was 200 s, and the two-step regeneration of 35 s at 30 μL·min-1, using 100 mM glycine at pH 3.0, was performed. Local curve fitting analysis was performed using the BIACORE evaluation software (Cytiva) by fitting the obtained sensorgrams to theoretical curves, assuming 1-1 binding geometries. For the determination of the equilibrium dissociation constant, the ratio of the association and dissociation rate constants was determined.

T1 sequence (P01732 22-182 limits assumed, chain 1 of 2): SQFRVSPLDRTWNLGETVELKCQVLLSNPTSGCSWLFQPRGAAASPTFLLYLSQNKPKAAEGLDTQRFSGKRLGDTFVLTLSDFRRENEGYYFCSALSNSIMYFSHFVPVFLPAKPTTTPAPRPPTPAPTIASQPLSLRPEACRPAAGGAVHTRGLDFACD
T1 sequence (P10966 22-170 limits assumed, chain 2 of 2): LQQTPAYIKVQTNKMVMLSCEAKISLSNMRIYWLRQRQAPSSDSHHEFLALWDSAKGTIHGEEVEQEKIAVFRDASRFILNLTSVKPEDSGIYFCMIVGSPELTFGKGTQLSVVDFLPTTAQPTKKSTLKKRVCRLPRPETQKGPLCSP
T3 sequence (P01732 22-235, chain 1 of 2): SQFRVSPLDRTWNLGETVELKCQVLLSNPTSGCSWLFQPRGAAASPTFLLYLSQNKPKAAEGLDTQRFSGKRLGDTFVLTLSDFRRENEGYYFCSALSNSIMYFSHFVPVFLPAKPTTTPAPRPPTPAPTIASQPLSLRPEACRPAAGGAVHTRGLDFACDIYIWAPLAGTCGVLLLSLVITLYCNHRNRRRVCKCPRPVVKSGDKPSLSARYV
T3 sequence (P10966 22-210, chain 2 of 2): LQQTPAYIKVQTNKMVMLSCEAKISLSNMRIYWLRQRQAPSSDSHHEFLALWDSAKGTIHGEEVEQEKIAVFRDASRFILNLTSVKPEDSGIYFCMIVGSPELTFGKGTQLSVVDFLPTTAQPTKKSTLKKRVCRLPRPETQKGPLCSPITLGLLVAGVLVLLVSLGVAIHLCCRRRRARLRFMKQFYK
T2 sequence (P01732 22-235): as the sequence (P01732 22-235, chain 1 of 2) above

B1: anti-human CD8β single domain antibody 22728 (VHH)
VHH: DVQLVESGGGLVQAGDSLRLSCVASGRTVSGGVMGWFRQAPGKGREFVASIKWESGRTYYVDSLKDGFTISRDSPKNTVYLQMTNLKPEDTAVYYCAAGIRVWQLSTLESTYDDWGQGTQVTVSS
notes: Llama-derived sdAb; detected through its C-terminal HA-tag in flow cytometry and ELISA; not shown: C-terminal HA-tag and His-tag (pMECS vector)
For B1, the Kd in experiment [1] came out at 2.9 nM; in experiment [3], 2 nM; in experiment [4], 1.7 nM; in experiment [5], 2.6 nM. Also, in experiment [2], the binding result was “no binding (tested: 100 nM)”.

B2: anti-human CD8β single domain antibody 22772 (VHH)
VHH: DVQLVESGGGLVQPGGSLRLSCRASGHTFSDLSVGWFRRAPGKAREFVATTAWNGSIRYAESVKGRFTISRDNAANMMYLQMNSLKPEDTAIYYCAAAVGISYDYWGQGTQVTVSS
notes: detected through its C-terminal HA-tag; not shown: C-terminal HA-tag and His-tag (pMECS vector)
On to B2, for which the Kd worked out at 3.5 nM in experiment [1], 16.8 nM in experiment [3], 1.6 nM in experiment [4] and 5 nM in experiment [5].

B3: anti-human CD8β single domain antibody 22719 (VHH)
VHH: DVQLVESGGGLVQAGGSLRLSCRASGHTFSDTAVGWFRRVPGKEREFVATIAGSGSIRYSESVKGRFTISGDNAKNMVYLQMNRLKPEDTGVYYCAAAVGISYDYWGQGTQVTVSS
notes: as for B1
In the case of B3, the Kd in experiment [1] came out at 3.6 nM; in experiment [3], 16 nM; in experiment [4] it was 4.4 nM; in experiment [5], 1 nM. In experiment [2], the binding result is recorded as “no binding (tested: 100 nM)”.

Values taken from US20260102527A1 (VRIJE UNIVERSITEIT BRUSSEL, published 2026).
